Experimental data published in patent US20240124553A1.
Like-named read-outs stand apart in the source and are kept apart here.

How the values were obtained:
[1] = molecular target: CHIKV virus-like particles (strain 37997) (chikungunya virus)
[2] = molecular target: CHIKV virus-like particles (strain 37997) (chikungunya virus); remark: listed apart in the source
[3] = molecular target: CHIKV strain 181/25 (virions; also E2-E1 shown on infected cells) (chikungunya virus); assay: ELISA, CHIKV-181/25 captured with a human anti-CHIKV mAb, anti-mouse IgG-HRP
[4] = molecular target: CHIKV E2-6K-E1 envelope proteins (strain S27) with E2 Q195A (Chikungunya virus strain S27) (UniProt Q8JUX5); assay: flow cytometry, transfected 293T cells

B1: MXRA8-2-Fc (extracellular domain of human MXRA8-2 fused to mouse IgG2b Fc) (Fc fusion)
chain: ISVLLHSGSSVPAAAGSSVVSESAVSWEAGARAVLRCQSPRMVWTQDRLHDRQRVLHWDLRGPGGGPARRLLDLYSAGEQRVYEARDRGRLELSASAFDDGNFSLLIRAVEETDAGLYTCNLHHHYCHLYESLAVRLEVTDGPPATPAYWDGEKEVLAVARGAPALLTCVNRGHVWTDRHVEEAQQVVHWDRQPPGVPHDRADRLLDLYASGERRAYGPLFLRDRVAVGADAFERGDFSLRIEPLEVADEGTYSCHLHHHYCGLHERRVFHLTVAEPHAEPPPRGSPGNGSSHSGAPGPDPTLARGHNVINVIVPESRAHASVRSPSGPISTINPCPPCKECHKCPAPNLEGGPSVFIFPPNIKDVLMISLTPKVTCVVVDVSEDDPDVQISWFVNNVEVHTAQTQTHREDYNSTIRVVSTLPIQHQDWMSGKEFKCKVNNKDLPSPIERTISKIKGLVRAPQVYILPPPAEQLSRKDVSLTCLVVGFNPGDISVEWTSNGHTEENYKDTAPVLDSDGSYFIYSKLNMKTSKWEKTDSFSCNVRHEGLKNYYLKKTISRSPGK
EC50 (read off the curve) [1]: 0.05 µg/mL

B2: Mxra8-Fc (extracellular domain of mouse Mxra8 fused to mouse IgG2b Fc) (Fc fusion)
chain: SGPSGTAAASSSLVSESVVSLAAGTQAVLRCQSPRMVWTQDRLHDRQRVVHWDLSGGPGSQRRRLVDMYSAGEQRVYEPRDRDRLLLSPSAFHDGNFSLLIRAVDRGDEGVYTCNLHHHYCHLDESLAVRLEVTEDPLLSRAYWDGEKEVLVVAHGAPALMTCINRAHVWTDRHLEEAQQVVHWDRQLPGVSHDRADRLLDLYASGERRAYGPPFLRDRVSVNTNAFARGDFSLRIDELERADEGIYSCHLHHHYCGLHERRVFHLQVTEPAFEPPARASPGNGSGHSSAPSPDPTLTRGHSIINVIVPEDHTHPSGPISTINPCPPCKECHKCPAPNLEGGPSVFIFPPNIKDVLMISLTPKVTCVVVDVSEDDPDVQISWFVNNVEVHTAQTQTHREDYNSTIRVVSTLPIQHQDWMSGKEFKCKVNNKDLPSPIERTISKIKGLVRAPQVYILPPPAEQLSRKDVSLTCLVVGFNPGDISVEWTSNGHTEENYKDTAPVLDSDGSYFIYSKLNMKTSKWEKTDSFSCNVRHEGLKNYYLKKTISRSPGK
EC50 (read off the curve) [1]: 0.01 µg/mL
EC50 (read off the curve) [2]: 0.01 µg/mL
EC50 (read off the curve) [3]: 0.1 µg/mL

B3: Mxra8-Fc (mouse Mxra8 extracellular domain fused to mouse IgG2b Fc) (Fc fusion)
chain: B2 chain
Binding Reactivity (% WT) [4]: 82.4 % WT
